Experimental data taken from US20240042018A1 (University of Washington, published 2024).

Assays:
I53_dn5B trimer = molecular target: T1, I53_dn5B trimer; experiment: nanoparticle assembly grade, Table 3
T1 chain: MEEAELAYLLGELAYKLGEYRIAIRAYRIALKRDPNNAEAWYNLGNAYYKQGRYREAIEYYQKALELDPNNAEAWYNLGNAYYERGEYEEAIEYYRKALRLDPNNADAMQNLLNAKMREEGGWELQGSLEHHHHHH

I53_dn5B_2gly trimer = molecular target: T2, I53_dn5B_2gly trimer (N-linked glycans at PNGS 32-YDNLT-36 and 89-NAT-91); experiment: in vitro nanoparticle assembly, SEC and SDS-PAGE
T2 chain: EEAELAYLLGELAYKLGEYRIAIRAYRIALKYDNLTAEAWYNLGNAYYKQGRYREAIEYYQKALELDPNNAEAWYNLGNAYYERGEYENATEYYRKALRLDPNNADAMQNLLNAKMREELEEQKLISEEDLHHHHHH

B1: I53_dn5A_2gly pentamer (designed binder)
chain: KYDGSKLRIGILHARGNAEIILELVLGALKRLQEFGVKRENIIIETVPGSFELPYGSKLFVEKQKRLGKPLDAIIPIGVLIRGNDTHFDYIADSTTHQLMKLNFELGIPVIFGVLTTNSTEQAEERAGTKAGNHGEDWGAAAVEMATKFNLEEQKLISEEDLHHHHHH
binding result (I53_dn5B trimer): binds | binding result (I53_dn5B_2gly trimer): binds
